This note sets out measurements from patent US20190016825A1 (JIANGSU HENGRUI MEDICINE, published 2019).

A word on the EC50: it is the midpoint of the concentration-response curve. The IC50 is the concentration that inhibits the measured activity by half. The Kd is a measure of binding affinity in units of concentration. High values mean weaker binding, low ones tighter binding.

Positions count from the first letter of the chain named.

The target of assay [1] is T1, PCSK9-D374Y-BP15-His6 (human, UniProt Q8NBP7 31-692, biotin on the BP15 biotin receiving peptide).
T1 construct: also called PCSK9-Y; mutant PCSK9
In words: ELISA, bio-PCSK9-Y captured on streptavidin plate. Here is the method: The binding ability of anti-PCSK9 antibodies of the present invention to PCSK9-Y was detected by measuring the amount of antibodies binding to PCSK9-Y (mutant PCSK9, SEQ ID NO: 6) fixed on the ELISA plate.
Streptavidin (sigma, CAT#54762) was diluted to 2 μg/ml with PBS and coated into 96-well ELISA plate at 4° C. overnight. The plate was washed and then blocked with Tris buffer (including 0.9 mM CaCl₂, 0.05% Tween 20 and 5% skim milk) at 37° C. for 2 hours. Then the plate was washed again and 100 μl/well of the biotin-labeled PCSK9-Y, produced in-house, (bio-PCSK9-Y, diluted with Tris buffer containing 0.9 mM CaCl₂, 0.05% Tween 20 and 1% skim milk) was added and incubated at 37° C. for 1 hour. After the wash step, different concentrations of diluted PCSK9 antibody samples were added to the plate and incubated at 37° C. for 1 hour. Then the plate was washed again and HRP-goat-anti-human (H+L) antibody (Jackson ImmunoResearch, CAT#109-035-088) was added and incubated at 37° C. for 1 hour. Then the plate was washed again and tetramethylbenzidine solution was added for development. Finally, the stop solution was added and the OD450 value was measured on the Microplate reader, and then EC50 was calculated.
The results of ELISA test for the binding ability of chimeric antibodies and back-mutated antibodies of the present invention to mutant PCSK9 are shown in table 6.
For orientation: In an ELISA, binding on a coated surface is turned into a signal by an enzyme label.

Assay [2] deals with T2, PCSK9-BP15-His6 (human, UniProt Q8NBP7 31-692, biotin on the BP15 biotin receiving peptide).
T2 construct: It holds a signal peptide (underlined in print); also called WT PCSK9; bio-WT-PCSK9
In words: ELISA, bio-WT-PCSK9 captured on streptavidin plate. As to the method: The binding ability of anti-PCSK9 antibodies of the present invention to PCSK9 was detected by measuring the amount of antibodies binding to wild-type PCSK9 protein (WT PCSK9, SEQ ID NO: 5) fixed on the ELISA plate.
Streptavidin (sigma, CAT#S4762) was diluted to 2 μg/ml with PBS and coated into 96-well ELISA plate, at 4° C. overnight. The plate was washed and then blocked with Tris buffer (including 0.9 mM CaCl2, 0.05% Tween 20 and 5% skim milk) at 37° C. for 2 hours. Then the plate was washed again and 100 μl/well of the biotin-labeled PCSK9, produced in-house, (bio-WT-PCSK9, diluted with Tris buffer containing 0.9 mM CaCl2, 0.05% Tween 20 and 1% skim milk), was added and incubated at 37° C. for 1 hour. After the wash step, different concentrations of diluted PCSK9 antibody samples was added to the plate and incubated at 37° C. for 1 hour. Then the plate was washed again and HRP-goat-anti-human (H+L) antibody (Jackson ImmunoResearch, CAT#109-035-088) was added and incubated at 37° C. for 1 hour. Then the plate was washed again and tetramethylbenzidine solution was added for development. Finally, the stop solution was added and the OD450 value was measured on the Microplate reader, and then EC50 was calculated.

Assay [3] addresses T1, PCSK9-D374Y-BP15-His6. In words: blocking ELISA, LDLR-FC (SEQ ID NO: 8) coated, bio-PCSK9-Y plus antibody. Here is the method:
The blocking abilities of anti-PCSK9 antibodies to the binding of LDLR-FC (SEQ ID NO: 8) to PCSK9-Y (mutant PCSK9, SEQ ID NO: 6) were detected by measuring the amount of PCSK9-Y binding to LDLR in the presence of the antibodies.
LDLR-FC was diluted to 2 μg/ml with phosphate buffer and coated in the 96-well ELISA plate (Costar, CAT#3590), then incubated at 4° C. overnight. The plate was washed and then blocked with Tris buffer (including 0.9 mM CaCl₂, 0.05% Tween 20 and 5% skim milk) at 37° C. for 2 hours. Then the plate was washed again and 100 μl/well of the mixture of biotin-labeled PCSK9-Y (bio-PCSK9-Y, diluted to final concentration of […] with Tris buffer containing 0.9 mM CaCl₂, 0.05% Tween 20 and 1% skim milk) and antibody samples (diluted with Tris buffer containing 0.9 mM CaCl₂, 0.05% Tween 20 and 1% skim milk) were added and incubated at 37° C. for 1 hour. Then the plate was washed again and horseradish peroxidase-streptavidin (sigma, CAT#S2438) was added and incubated at 37° C. for 1 hour. Then the plate was washed and tetramethylbenzidine solution was added for development. Finally, the stop solution was added and the OD450 value was measured on the Microplate reader, then IC50 was calculated.
The results of blocking test for the blocking effects of the chimeric antibodies and back-mutated antibodies of the present invention on the binding of LDLR-FC/PCSK9-Y are shown in table 7.

Assay [4] deals with T2, PCSK9-BP15-His6. In words: blocking ELISA, LDLR-FC (SEQ ID NO: 8) coated, bio-WT-PCSK9 plus antibody. As to the method: The blocking abilities of PCSK9 antibodies of the present invention to the binding of LDLR-FC (produced in-house, sequence is shown in SEQ ID NO: 8) to PCSK9 (SEQ ID NO: 5) were detected by measuring the amount of PCSK9 binding to LDLR in the presence of the antibodies.
LDLR-FC was diluted to 5 μg/ml with phosphate buffer and coated in the 96-well ELISA plate, then incubated at 4° C. overnight. The plate was washed and then blocked with Tris buffer (including 0.9 mM CaCl₂, 0.05% Tween 20 and 5% skim milk) at 37° C. for 2 hours. Then the plate was washed again and 100 μl/well of the mixture of biotin-labeled PCSK9 (bio-WT-PCSK9, diluted to the final concentration of 2 μg/ml with Tris buffer containing 0.9 mM CaCl₂, 0.05% Tween 20 and 1% skim milk) and antibody samples (diluted with Tris buffer containing 0.9 mM CaCl₂, 0.05% Tween 20 and 1% skim milk) were added and incubated at 37° C. for 1 hour. Then the plate was washed again and horseradish peroxidase-streptavidin (Sigma, CAT#52438) was added and incubated at 37° C. for 1 hour. Then the plate was washed and tetramethylbenzidine solution was added for development. Finally, the stop solution was added and the OD450 was measured on the Microplate reader, then IC50 was calculated.

For another assay, the target named is T3, PCSK9-His6 (human, UniProt Q8NBP7 31-692, limits assumed).
T3 construct: also called human PCSK9 with His tag; huPCSK9
In words: BIAcore, antibody captured by human Fab capture molecule on CM5 chip, PCSK9-His6 in flow. The text has this: According to the method described in the Human Fab Capture Kit (Cat. #28-9583-25, GE), the human Fab capture molecule was covalently linked to the CM5 biochip (Cat. # BR-1000-12, GE) so that the antibodies to be tested were affinity captured. Then, human PCSK9 antigen (human PCSK9 with His tag: PCSK9-His6, SEQ ID NO: 1) flowed through the surface of the biochip, and the reaction signal was detected in real time using a Biacore instrument to obtain the association and dissociation curves. Finally, the affinity values were obtained by fitting and are shown at table 9 below. After each cycle of dissociation was finished in the experiment, the biochip was washed and regenerated with regeneration solution in Human Fab Capture kit (GE).
In general terms: In SPR one partner is held on a chip, and binding of the other changes the refractive index at the surface.

B1: h001-4-WT (antibody)
heavy: not shown
light: DIVMSQSPSSLSASVGDRVTITCKSSQSLLNSRTRKNFLAWYQQKPGKSPKLLIYWASTRESGVPDRFSGSGSGTDFTLTISSLQPEDFATYYCKQSFNLFTFGQGTKLEIKRTVAAPSVFIFPPSDEQLKSGTASVVCLLNNFYPREAKVQWKVDNALQSGNSQESVTEQDSKDSTYSLSSTLTLSKADYEKHKVYACEVTHQGLSSPVTKSFNRGEC
notes: both labels are treated as one molecule; also called H001-4 IgG1 format; h001_VH.1 + h001_VL.1C
As for B1, the results for the EC50 in the assay with PCSK9-D374Y-BP15-His6 [1] and with PCSK9-BP15-His6 [2] were 0.0179 µg/mL and 0.012 µg/mL, respectively. Further, the results for the IC50 with PCSK9-D374Y-BP15-His6 [3] and with PCSK9-BP15-His6 [4] were 0.53 µg/mL and 0.76 µg/mL, respectively. This molecule also registered a dissociation constant Kd in the assay with PCSK9-His6 of 0.288 nM.

B2: h001-4-YTE (antibody, human IgG1, kappa)
heavy: QVQLVQSGAEVKKPGASVKVSCKASGYTFTDYWMHWVRQAPGQGLEWMGYINPSSGFTKYHQNFKDRVTMTRDTSISTAYMELSRLRSDDTAVYYCARQYDYDEDWYFDVWGQGTTVTVSSASTKGPSVFPLAPSSKSTSGGTAALGCLVKDYFPEPVTVSWNSGALTSGVHTFPAVLQSSGLYSLSSVVTVPSSSLGTQTYICNVNHKPSNTKVDKKVEPKSCDKTHTCPPCPAPELLGGPSVFLFPPKPKDTLYITREPEVTCVVVDVSHEDPEVKFNWYVDGVEVHNAKTKPREEQYNSTYRVVSVLTVLHQDWLNGKEYKCKVSNKALPAPIEKTISKAKGQPREPQVYTLPPSRDELTKNQVSLTCLVKGFYPSDIAVEWESNGQPENNYKTTPPVLDSDGSFFLYSKLTVDKSRWQQGNVFSCSVMHEALHNHYTQKSLSLSPGK
light: B1 light
notes: human kappa light chain; also called h001-4-IgG1-YTE
As to B2, in the assay with PCSK9-His6, the Kd was determined as 0.491 nM. In other words, the sub-nanomolar range.

B3: h001-8 (antibody, human IgG1, V domains shown)
VH: QVQLVQSGAEVKKPGASVKVSCKASGYTFNDYWMHWVRQAPGQGLEWMGYINPSSGFTKYHQNFKDRVTMTRDTSISTAYMELSRLRSDDTAVYYCARQYDYDEDWYFDVWGQGTTVTVSS
VL: DIVMSQSPSSLSASVGDRVTITCKSSQSLLNSRTRKNFLAWYQQKPGKSPKLLIYWASTRESGVPDRFSGSGSGTDFTLTISSLQPEDFATYYCKQSFNLFTFGQGTKLEIK
notes: Variable regions only; also called h001_VH.1A + h001_VL.1C
Consider B3, for which the EC50 with PCSK9-D374Y-BP15-His6 [1] is 0.0165 µg/mL; with PCSK9-BP15-His6 [2], 0.009 µg/mL. Further, the IC50 with PCSK9-D374Y-BP15-His6 [3] came out at 0.414 µg/mL; with PCSK9-BP15-His6 [4] it was 0.774 µg/mL.

B4: h001-9 (antibody, human IgG1, V domains shown)
VH: B3 VH with N30T, R87T
VL: B3 VL with V3Q, S5T, S49A, D66S
notes: Variable regions only; also called h001_VH.1B + h001_VL.1
For the molecule B4, the concentration for a half-maximal effect (EC50) with PCSK9-D374Y-BP15-His6 [1] was 0.0194 µg/mL; in the assay with PCSK9-BP15-His6 [2], 0.0136 µg/mL. The IC50 in the assay with PCSK9-D374Y-BP15-His6 [3] was found to be 0.52 µg/mL; with PCSK9-BP15-His6 [4], 0.923 µg/mL.

B5: h001-10 (antibody, human IgG1, V domains shown)
VH: B3 VH with N30T, R87T
VL: B3 VL with V3Q, S5T, S49A
notes: Variable regions only; also called h001_VH.1B + h001_VL.1A
For the molecule B5, the EC50 is 0.0209 µg/mL with PCSK9-D374Y-BP15-His6 [1] and 0.0176 µg/mL with PCSK9-BP15-His6 [2]. The IC50 was 0.514 µg/mL in the assay with PCSK9-D374Y-BP15-His6 [3] and 0.829 µg/mL in the assay with PCSK9-BP15-His6 [4].

B6: Ch-001 (antibody, V domains shown)
VH: QVHLQQSGAELAKPGASVKLSCKASGYTFNDYWMHWVKERPGQGLEWIGYINPSSGFTKYHQNFKDKATLTADKSSSTAYMQLSSLTYDDSAVYYCARQYDYDEDWYFDVWGTGTTVTVSS
VL: DIVMSQSPSSLAVSAGEKVTMSCKSSQSLLNSRTRKNFLAWYQQKPGQSPKLLIYWASTRESGVPDRFTGRGSGTDFTLTISSVQAEDLAVYYCKQSFNLFTFGSGTKLEIK
notes: also called chimeric antibody
As to B6, the half-maximal effective concentration (EC50) with PCSK9-D374Y-BP15-His6 [1] was found to be 0.0132 µg/mL; in the assay with PCSK9-BP15-His6 [2] it was 0.0084 µg/mL. For the same molecule, the figures for the half-maximal inhibitory concentration (IC50) with PCSK9-D374Y-BP15-His6 [3] and in the assay with PCSK9-BP15-His6 [4] were 0.392 µg/mL and 0.836 µg/mL, respectively.
